Publication PMC2213029 (The Journal of Experimental Medicine, 2005)
Non-standard residues stand in square brackets, D forms with d. No end group written: not given here. pY = N[C@@H](Cc1ccc(OP(=O)(O)O)cc1)C(=O)O

T1: CD45-D1D2 (597–1213) C828S (human, UniProt P08575 622-1238, C828S, selenomethionine (Sel-Met) substituted in the crystals with the phosphopeptides)
T1 sequence (looked up): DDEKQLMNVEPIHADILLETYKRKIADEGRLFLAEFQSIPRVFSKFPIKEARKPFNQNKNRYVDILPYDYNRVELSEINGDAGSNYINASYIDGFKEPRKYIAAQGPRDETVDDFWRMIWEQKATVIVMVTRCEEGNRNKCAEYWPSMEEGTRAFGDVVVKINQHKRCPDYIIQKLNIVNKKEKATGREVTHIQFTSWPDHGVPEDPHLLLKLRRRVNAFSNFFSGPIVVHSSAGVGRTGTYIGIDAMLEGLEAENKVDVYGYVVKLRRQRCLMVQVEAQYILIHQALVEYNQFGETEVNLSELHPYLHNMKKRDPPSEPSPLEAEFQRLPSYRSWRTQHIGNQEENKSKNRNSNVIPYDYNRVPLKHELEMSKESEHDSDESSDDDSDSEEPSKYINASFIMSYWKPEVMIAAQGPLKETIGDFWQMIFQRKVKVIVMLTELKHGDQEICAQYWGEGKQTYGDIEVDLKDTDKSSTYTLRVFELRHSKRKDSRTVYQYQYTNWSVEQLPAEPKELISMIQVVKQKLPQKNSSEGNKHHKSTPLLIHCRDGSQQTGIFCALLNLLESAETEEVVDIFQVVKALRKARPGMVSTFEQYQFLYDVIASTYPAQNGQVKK


Molecular target: T1, CD45-D1D2 (597–1213) C828S
Assay: crystal structure

Binder	binding result
NPT[pY]S [NPTpYS phosphopeptide derived from the polyoma middle T antigen]	binds
QQQQNQL[pY]NELNLGRREE[pY]DVLDKRRG [CD3ζ ITAM-1 phosphopeptide (membrane proximal ITAM of the CD3ζ chain, both tyrosines phosphorylated)]	binds
